This data set concerns the target cardiac troponin I (cTnI) (human, UniProt P19429 2-210). Put plainly: strand displacement.

Sequence of cardiac troponin I (cTnI) (P19429 2-210): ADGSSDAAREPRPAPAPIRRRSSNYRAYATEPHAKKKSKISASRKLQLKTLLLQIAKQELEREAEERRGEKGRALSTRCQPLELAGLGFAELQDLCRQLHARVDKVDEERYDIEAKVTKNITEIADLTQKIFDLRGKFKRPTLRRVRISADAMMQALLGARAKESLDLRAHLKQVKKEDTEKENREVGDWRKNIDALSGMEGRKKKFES

B1: Poly-T (ssDNA)
DNA: TTTTTTTTTTTTTTTTTTTTCTCATGCGCTGCCCCTCTTATTTTTTTTTTT
modifications: 3'-NH2
Regarding B1, the binding result is on record as “no binding”.

(Values after PMC8258042.)
